The record followed here is patent publication US20240270839A1.

The term pKd denotes the Kd on a negative log10 scale, so that one unit is a factor of ten.

pKd: −log10 of the molar value.

The target of assay [1] is human CLDN18.2 as used in the Octet assay (human). Kind of assay: Octet (BLI); format not described.
Assay [2] deals with recombinant 6xHis tagged human CLDN18.2 (human). Kind of assay: SPR (Biacore); same values as Table 30. Background: Surface plasmon resonance follows binding to a sensor surface in real time, without labels.
Assay [3] shares this target. Put plainly: SPR (Biacore T200), His tagged CLDN18.2 amine-coupled on CM5, antibody as analyte, 1:1 fit.

In the case of IMAB362 (Zolbetuximab) (antibody), the pKd in assay [1] was 8.80; in assay [2], 6.94; in assay [3], 6.94.
